Laboratory results published in the supplement of paper PMC9732359.
± gives the uncertainty stated by the source.

Experiment: protein stability index of a GFP-peptide fusion (yeast GPS) (PSI 1-4); higher = more stable; sorted into four equal gates, so the index is relative within each strain
Summary of the method: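 Mid-log yeast cultures in leucine-free medium, carrying a pooled plasmid library, were sorted into four equal gates by their GFP/Cherry fluorescence ratio. Each plasmid expressed Cherry along with GFP fused upstream of a tiled 17-residue yeast protein peptide. Plasmids recovered from each gate were PCR-amplified and Illumina-sequenced, with reads assigned to strains by barcodes. The protein stability index was obtained by summing each gate's read frequency weighted by its gate number.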

Row | Sequence | protein stability index (doa10∆) | protein stability index (pdr5∆) | protein stability index (san1∆) | protein stability index (ubr1∆)
1 | NNPKIQTKDSVKEIVLP [IRR1] | 3.17 ± 0.07 | 2.94 ± 0.077 | 3 ± 0.059 | 3.11 ± 0.051
2 | LKSHYYQTCKNSEYLKR [SMC2] | 1.54 ± 0.067 | 1.5 ± 0.057 | 1.36 ± 0.091 | 1.85 ± 0.046
3 | DLSTLVHSSSPSTSSNM [GAL11] | 2.77 ± 0.066 | 2.91 ± 0.069 | 2.71 ± 0.082 | 2.78 ± 0.039
4 | TPIIFIGTGEHIHDLEK [SRP54] | 1.94 ± 0.071 | 2.42 ± 0.063 | 2.76 ± 0.068 | 2.45 ± 0.056
5 | RQINKLIDSLPGVDVSA [SRB7] | 2.43 ± 0.056 | 2.06 ± 0.05 | 1.6 ± 0.077 | 1.9 ± 0.038
6 | GYIKNNKKIYQWNKLTS [POP6] | 2.93 ± 0.085 | 2.91 ± 0.089 | 2.89 ± 0.072 | 3.06 ± 0.081
7 | PTSAQKSAVSHAPAYHR [IRR1] | 2.81 ± 0.14 | 2.69 ± 0.12 |  | 2.89 ± 0.062
8 | CVQLIKCLVEKSICFEN [SWI1] | 2.49 ± 0.25 | 2.61 ± 0.25 | 2.28 ± 0.17 | 2.74 ± 0.15
9 | TSEMKVLSIPPANHLQS [YGL100W/SEH1] | 2.64 ± 0.067 | 2.15 ± 0.076 | 2.39 ± 0.081 | 2.56 ± 0.05
10 | SINGGIVVAMTGKDCVA [PUP3] |  | 2.39 ± 0.21 |  | 
11 | NNNGNSAASKKKKNKNK [SRP21] | 3.09 ± 0.092 | 3 ± 0.12 | 3.15 ± 0.057 | 3.14 ± 0.057
12 | IGARSQGAKTYLERTLD [PRE5] | 3.36 ± 0.13 | 3.34 ± 0.069 | 3.23 ± 0.07 | 3.22 ± 0.066
13 | VVIAADTRSTQGPIVAD [PUP1] | 2.65 ± 0.1 | 3.29 ± 0.24 | 2.68 ± 0.19 | 3 ± 0.072
14 | VRNSFPLDEIPVDVDFN [REC8] | 2.71 ± 0.12 | 2.33 ± 0.096 | 2.57 ± 0.078 | 2.99 ± 0.065
15 | KHGAKKVAKRTKIKPFI [RPL27A] | 2.91 ± 0.081 | 2.97 ± 0.082 | 2.95 ± 0.059 | 3.24 ± 0.035
16 | YEAYPNTSLPPSILEDS [FAS1] | 2.15 ± 0.033 | 2.4 ± 0.03 | 2.25 ± 0.037 | 2.4 ± 0.027
17 | QIDHFKSMLSKPETLSI [SWI3] | 2.61 ± 0.086 | 2.44 ± 0.074 | 2.73 ± 0.065 | 2.4 ± 0.048
18 | ERSELLRLFNAPDSEYL [SNF2] | 3.02 ± 0.044 | 2.8 ± 0.051 | 2.87 ± 0.045 | 2.77 ± 0.045
19 | DCENFFNYVQECPAIPI [YJL039C/NUP192] | 2.49 ± 0.075 | 2.93 ± 0.064 | 3.23 ± 0.069 | 2.99 ± 0.05
20 | LDRPEYLKKREAGEVKD [RPL10] | 3.27 ± 0.12 | 3.15 ± 0.15 | 3.35 ± 0.044 | 3.42 ± 0.084
21 | LYAITFRKGLGNPLLYD [QCR2] | 1.25 ± 0.17 | 1.32 ± 0.25 |  | 
22 | AKSTPNTNPSPLKTQTK [GAL11] | 2.82 ± 0.051 | 2.94 ± 0.046 | 2.64 ± 0.05 | 2.91 ± 0.038
23 | AAPSGNYKQLTLVGGGA [RRP43] | 1.36 ± 0.093 | 2.33 ± 0.07 | 2.23 ± 0.13 | 2.5 ± 0.079
24 | SKKIVPSPKKVAIDQDK [SIR4] | 2.73 ± 0.078 | 2.91 ± 0.066 | 2.59 ± 0.06 | 2.92 ± 0.057
25 | TSPSYSPTSPSYSPTSP [RPO21] | 2.64 ± 0.045 | 3 ± 0.038 | 2.77 ± 0.033 | 2.81 ± 0.03
26 | RVRVTGGGHVSQVYAIR [RPS16A] | 2.61 ± 0.048 | 2.87 ± 0.045 | 2.93 ± 0.044 | 2.76 ± 0.031
27 | EALAFTSLVANENDKIY [YDL116W/NUP84] | 1.85 ± 0.06 | 2.4 ± 0.052 | 2.02 ± 0.12 | 2.93 ± 0.062

Row | Sequence | protein stability index (doa10∆) | protein stability index (pdr5∆) | protein stability index (san1∆) | protein stability index (ubr1∆)
28 | WPKTRGVAMNPVDHPHG [RPL2A] | 2.37 ± 0.078 | 2.25 ± 0.057 | 2.74 ± 0.058 | 2.55 ± 0.066
29 | CLEDPEKPFNENRFQDT [POP4] | 2.68 ± 0.15 | 3.02 ± 0.16 | 2.64 ± 0.24 | 3.03 ± 0.099
30 | DRSASRAVFLFRCKETH [RPC82] | 1.77 ± 0.084 | 3.07 ± 0.15 |  | 3.02 ± 0.17
31 | IRIFRSELQRLSHENNV [RPT5] | 2.67 ± 0.11 | 3.21 ± 0.088 | 2.96 ± 0.052 | 2.9 ± 0.091
32 | NLGIPKIAYRGVKDCQE [SSN2] | 1.49 ± 0.2 | 1.58 ± 0.19 | 1.54 ± 0.26 | 1.13 ± 0.16
33 | KNTELSYDFLPLSNIKA [RPN12] | 3.13 ± 0.075 | 2.85 ± 0.074 | 3.08 ± 0.086 | 3.09 ± 0.068
34 | DILQITKKPLMVKNVKP [SIR4] | 2.79 ± 0.063 | 2.72 ± 0.049 | 2.55 ± 0.069 | 2.63 ± 0.062
35 | ENEMIKPMNKGQHKNNT [SWP82] | 3.36 ± 0.081 | 3.19 ± 0.12 | 3.33 ± 0.09 | 3.26 ± 0.049
36 | VSNPGDNPPPADNGEEY [MED2] | 3.14 ± 0.071 | 2.86 ± 0.1 | 3.13 ± 0.074 | 3.29 ± 0.11
37 | KKIKGKSIQDIVGLATL [SRP21] | 3.12 ± 0.039 | 3.22 ± 0.035 | 3.177 ± 0.026 | 3.116 ± 0.031
38 | ITSIPKPLTENCKKKKK [RMP1] | 2.84 ± 0.12 | 2.75 ± 0.12 | 2.05 ± 0.085 | 2.99 ± 0.095
39 | KDILVKTGITKKDEDEE [PRE9] | 3.37 ± 0.09 | 3.27 ± 0.087 | 2.58 ± 0.23 | 3.17 ± 0.14
40 | VNARDIPPLNKSLAMEH [CSN12] | 2.77 ± 0.23 | 2.67 ± 0.17 | 2.61 ± 0.19 | 
41 | AKEELNGLKDQLNEERS [YIL149C/MLP2] | 3.3 ± 0.14 | 3.42 ± 0.17 | 3.19 ± 0.075 | 3.41 ± 0.15
42 | LNEAQGHIVSLELTTGA [SMD3] | 1.47 ± 0.053 | 1.9 ± 0.059 | 1.59 ± 0.14 | 1.85 ± 0.072
43 | KQKSWVPSYIHVEKERA [YIL149C/MLP2] | 1.79 ± 0.058 | 2.25 ± 0.048 | 2.12 ± 0.082 | 2 ± 0.046
44 | QPKLNPMASSSSFGSES [SWI1] | 2.85 ± 0.064 | 3.28 ± 0.069 | 3.12 ± 0.048 | 2.92 ± 0.057
45 | FTKYKPARSSSLRSNVV [YAR002W/NUP60] | 1.79 ± 0.046 | 2.44 ± 0.045 | 2.17 ± 0.07 | 2.7 ± 0.04
46 | QACGLVKNLSLMSCISV [RPB2] | 1.49 ± 0.073 | 1.75 ± 0.06 | 2.44 ± 0.083 | 2.17 ± 0.075
47 | TEKDDNKTNNEDLFDDY [NUT1] | 2.92 ± 0.055 | 3.25 ± 0.053 | 3.01 ± 0.052 | 3.08 ± 0.049
48 | DPDIPMTIDLEPIEESS [IRR1] | 3.06 ± 0.086 | 3.45 ± 0.1 | 3.01 ± 0.13 | 3.15 ± 0.11
49 | TLPSVGHTLINNYKDLL [RPP0] |  | 3.34 ± 0.21 |  | 
50 | RRYKLLTATPNSINKTT [POP1] | 2 ± 0.046 | 2.38 ± 0.049 | 2.4 ± 0.065 | 2.52 ± 0.042
51 | KWPEYVRLQRQKKILSI [RPL8B] | 1.18 ± 0.061 | 1.16 ± 0.056 | 1.14 ± 0.098 | 1.17 ± 0.039
52 | TGAGAFGTGQSTFGFNN [YJL041W/NSP1] | 2.72 ± 0.055 | 2.57 ± 0.064 | 3.02 ± 0.058 | 2.85 ± 0.046
53 | GEKNFTSAHLKLKEMQK [SMC4] | 3.01 ± 0.14 | 3.35 ± 0.12 | 3.27 ± 0.078 | 3.14 ± 0.24
54 | SRKRGGENVFLKRISDG [SIR3] | 3.35 ± 0.086 | 3.29 ± 0.072 | 3.07 ± 0.052 | 3.24 ± 0.037
